Data from patent publication US20220120736A1, “METHODS AND ASSAYS FOR MODULATING GENE TRANSCRIPTION BY MODULATING CONDENSATES” (Whitehead Institute for Biomedical Research, priority 2018, published 2022).
Where no end group is shown, it is not given here.

Columns and labels:
[1] = target: T1, MED1-IDR droplets (Homo sapiens, UniProt Q15648); assay: In vitro droplet assay, TMR-labeled decapeptides with MED1-IDR-GFP; assay type: biochemical; details: 10 uM each, 125 mM NaCl, 10% PEG-8000
T1 construct: pETEC-MED1-IDR-GFP; Sabari et al., 2018; 948-1574; 6xHis (N); made in house; host or cells: E. coli LOBSTR
Method: Recombinant GFP or mCherry fusion proteins were concentrated and desalted to an appropriate protein concentration and 125 mM NaCl using Amicon Ultra centrifugal filters (30K MWCO, Millipore). Recombinant proteins were added to solutions at varying concentrations with indicated final salt and 10% PEG-8000 as crowding agent in Droplet Formation Buffer (50 mM Tris-HCl pH 7.5, 10% glycerol, 1 mM DTT). The protein solution was immediately loaded onto a homemade chamber comprising a glass slide with a coverslip attached by two parallel strips of double-sided tape. Slides were then imaged with an Andor confocal microscope with a 150× objective. Unless indicated, images presented are of droplets settled on the glass coverslip. For experiments with fluorescently labeled polypeptides, the indicated decapeptides were synthesized by the Koch Institute/MIT Biopolymers & Proteomics Core Facility with a TMR fluorescent tag. The protein of interest was added Buffer D with 125 mM NaCl and 10% Peg-8000 with the indicated polypeptide and imaged as described above. For FRAP of in vitro droplets 5 pulses of laser at a 50 us dwell time was applied to the droplet, and recovery was imaged on an Andor microscope every is for the indicated time periods. […] One microliter of this concentrated stock was used in a 10 uL droplet formation reaction to achieve a final concentration of 10 uM.

[2] = In vitro homotypic droplet formation assay; assay type: physicochemical
Method: Slides were then imaged on the Andor Revolution Spinning Disk Confocal using a 100× objective.
The CDK8-Mediator samples were purified as described (Meyer et al., 2008) with modifications. Prior to affinity purification, the P0.5M/QFT fraction was concentrated, to 12 mg/mL, by ammonium sulfate precipitation (35%). […] Affinity purification was carried out as described (Meyer et al., 2008), eluted material was loaded onto a 2.2 mL centrifuge tube containing 2 mL 0.15M KCl HEMG (20 mM HEPES, 0.1 mM EDTA, 2 mM MgCl2, 10% glycerol) and centrifuged at 50K RPM for 4 h at 4° C. This served to remove excess free GST-SREBP and to concentrate the CDK8-Mediator in the final fraction. Prior to droplet assays, purified CDK8-Mediator was concentrated using Microcon-30 kDa Centrifugal Filter Unit with Ultracel-30 membrane (Millipore MRCFOR030) to reach ˜300 nM of Mediator complex. Concentrated CDK8-Mediator was added to the droplet assay to a final concentration of ˜200 nM with or without 10 μM indicated GFP-tagged protein. Droplet reactions contained 10% PEG-8000 and 140 mM salt.
Proteins were stored in 10% glycerol, 50 mM Tris-HCl pH 7.5, 500 mM NaCl, 1 mM DTT. Amicon Ultra Centrifugal filters (30K or 50K MWCO, Millipore) were used to concentrate proteins to desired concentrations. […] Droplet assays were performed in 8-tube PCR strip. […]

[3] = test system: MED1-GFP condensates; assay: FRAP of MED1-GFP condensates in mESCs; assay type: cell-based, mouse; details: ectopic expression in mESCs, untreated
Method: ATP depletion: Cells were cultured for 2 hours in glucose-free DMEM (Gibco, 11966025) supplemented with 0.5× B27 supplement and 0.5× N2 supplement followed by incubation with 5 mM 2-deoxy-glucose (Sigma, D6134) and 126 nM Oligomycin (Sigma, 75351) for 2 hours. Cellular ATP levels were measured using a bioluminescence assay (Invitrogen, A22066) following manufacturer's instructions. Cells expressing fluorescently tagged proteins were imaged ever 1 s for 20 s at a 100× objective on the Andor Revolution Spinning Disk Confocal, […] system and Metamorph acquisition software (W.M. Keck Microscopy Facility, MIT). One or two images were pre-bleach and on then approximately 0.5 μm^2 was bleached with the 488 nm laser of the quantifiable laser module (QLM). FRAP was performed on selecting region of interest with 5 pulses of 20 μs each. For FRAP analysis, florescence recovery was measured as fluorescence intensity of photobleached area normalized to the intensity of the unbleached area or the entire nucleus. Fluorescence intensity was measured with FIJI FRAP profiler plugin (code written by Jeff […], adapted from Tony Collins' Macbiophotonics plugins, available here: //worms.zoology.wisc.edu/research/4d/4d.html

[4] = target: T2, MED1-IDR-mCherry (human, UniProt Q15648 948-1574); assay: in vitro droplet assay, 10 uM each, 125 mM NaCl, 10% PEG-8000
T2 construct: Recombinant from E. coli; Lacks the LXXLL motifs; also called mCherry-MED1-IDR

[5] = test system: HCT116 cells; assay: FRAP of endogenously tagged mEGFP-β-catenin in HCT116 cells; assay type: cell-based; details: nuclear puncta, constitutive WNT-activated HCT116 cells
Method: FRAP was performed on LSM880 Airyscan microscope with 488 nm laser. Bleaching was performed over a rbleach≈1 um using 100% laser power and images were collected every two seconds. Fluorescence intensity was measured using FIJI. Background intensity was subtracted and values are reported relative to pre-bleaching time points.
Custom MATLAB™ scripts were written to process the intensity data, accounting for background photobleaching and normalization to pre-bleach intensity. Post bleach FRAP recovery data was averaged over 9 replicates for each cell-line and condition.

[6] = target: T3, MED1-IDR-GFP (human, UniProt Q15648 948-1574); assay: in vitro droplet assay with TMR-labeled decapeptide, 125 mM NaCl, 10% PEG-8000
T3 construct: Recombinant from E. coli
Source text: All 17 acidic residues in the N-AD and 6 acidic residues in the C-AD were mutated to alanine to generate an OCT4-acidic mutant.

Molecule: Poly-P: TMR labeled proline decapeptide (PPPPPPPPPP; also: TMR labeled, site not given here)
- incorporation of TMR labeled decapeptide into MED1-IDR droplets [1]: not incorporated into MED1-IDR droplets

Molecule: Poly-E: TMR labeled glutamic acid decapeptide
- incorporation of TMR labeled decapeptide into MED1-IDR droplets [1]: incorporated into MED1-IDR droplets
- incorporation of TMR labeled decapeptide into MED1-IDR droplets ([1]; listed as glutamic acid peptides): concentrated within

Molecule: GCN4: purified recombinant yeast GCN4-GFP
- concentration at which micron-sized droplets form alone ([2]; 125 mM NaCl, 10% PEG-8000): 40 µM

Molecule: MED1-GFP: full-length human MED1 fused to mEGFP, ectopically expressed in mESCs
- apparent diffusion coefficient [3]: 0.36±0.13 μm2/s

B1: ER-GFP (receptor, not shown: large carriers; small tags and cut ends)
chain: MTMTLHTKASGMALLHQIQGNELEPLNRPQLKIPLERPLGEVYLDSSKPAVYNYPEGAAYEFNAAAAANAQVYGQTGLPYGPGSEAAAFGSNGLGGFPPLNSVSPSPLMLLHPPPQLSPFLQPHGQQVPYYLENEPSGYTVREAGPPAFYRPNSDNRRQGGRERLASTNDKGSMAMESAKETRYCAVCNDYASGYHYGVWSCEGCKAFFKRSIQGHNDYMCPATNQCTIDKNRRKSCQACRLRKCYEVGMMKGGIRKDRRGGRMLKHKRQRDDGEGRGEVGSAGDMRAANLWPSPLMIKRSKKNSLALSLTADQMVSALLDAEPPILYSEYDPTRPFSEASMMGLLTNLADRELVHMINWAKRVPGFVDLTLHDQVHLLECAWLEILMIGLVWRSMEHPGKLLFAPNLLLDRNQGKCVEGMVEIFDMLLATSSRFRMMNLQGEEFVCLKSIILLNSGVYTFLSSTLKSLEEKDHIHRVLDKITDTLIHLMAKAGLTLQQQHQRLAQLLLILSHIRHMSNKGMEHLYSMKCKNVVPLYDLLLEMLDAHRLHAPTSRGGASVEETDQSHLATAGSTSSHSLQKYYITGEAEGFPATV
notes: Tested without ligand, with estrogen (beta-estradiol) and with tamoxifen (4-hydroxytamoxifen); also called estrogen receptor; GFP labeled ER
- binding result [4]: binds

B2: MED1-IDR: recombinant GFP fusion of the MED1 intrinsically disordered region (948-1574) (protein)
chain: EHHSGSQGPLLTTGDLGKEKTQKRVKEGNGTSNSTLSGPGLDSKPGKRSRTPSNDGKSKDKPPKRKKADTEGKSPSHSSSNRPFTPPTSTGGSKSPGSAGRSQTPPGVATPPIPKITIQIPKGTVMVGKPSSHSQYTSSGSVSSSGSKSHHSHSSSSSSSASTSGKMKSSKSEGSSSSKLSSSMYSSQGSSGSSQSKNSSQSGGKPGSSPITKHGLSSGSSSTKMKPQGKPSSLMNPSLSKPNISPSHSRPPGGSDKLASPMKPVPGTPPSSKAKSPISSGSGGSHMSGTSSSSGMKSSSGLGSSGSLSQKTPPSSNSCTASSSSFSSSGSSMSSSQNQHGSSKGKSPSRNKKPSLTAVIDKLKHGVVTSGPGGEDPLDGQMGVSTNSSSHPMSSKHNMSGGEFQGKREKSDKDKSKVSTSGSSVDSSKKTSESKNVGSTGVAKIIISKHDGGSPSIKAKVTLQKPGESSGEGLRPQMASSKNYGSPLISGSTPKHERGSPSHSKSPAYTPQNLDSESESGSSIAEKSYQNSPSSDDGIRPLPEYSTEKHKKHKKEKKKVKDKDRDRDRDKDRDKKKSHSIKPESWSKSPISSDQSLSMTSNTILSADRPSRLSPDFMIGEEDDDLM
modifications: left off: large carriers; small tags and cut ends
- lowest concentration tested, at which droplets were observed ([2]; droplet formation buffer with 10% PEG-8000, range tested 0.6 to 20 μM): 0.6 µM

B3: β-catenin: mEGFP-tagged β-catenin at the endogenous locus in HCT116 cells (protein)
chain: ATQADLMELDMAMEPDRKAAVSHWQQQSYLDSGIHSGATTTAPSLSGKGNPEEEDVDTSQVLYEWEQGFSQSFTQEQVADIDGQYAMTRAQRVRAAMFPETLDEGMQIPSTQFDAAHPTNVQRLAEPSQMLKHAVVNLINYQDDAELATRAIPELTKLLNDEDQVVVNKAAVMVHQLSKKEASRHAIMRSPQMVSAIVRTMQNTNDVETARCTAGTLHNLSHHREGLLAIFKSGGIPALVKMLGSPVDSVLFYAITTLHNLLLHQEGAKMAVRLAGGLQKMVALLNKTNVKFLAITTDCLQILAYGNQESKLIILASGGPQALVNIMRTYTYEKLLWTTSRVLKVLSVCSSNKPAIVEAGGMQALGLHLTDPSQRLVQNCLWTLRNLSDAATKQEGMEGLLGTLVQLLGSDDINVVTCAAGILSNLTCNNYKNKMMVCQVGGIEALVRTVLRAGDREDITEPAICALRHLTSRHQEAEMAQNAVRLHYGLPVVVKLLHPPSHWPLIKATVGLIRNLALCPANHAPLREQGAIPRLVQLLVRAHQDTQRRTSMGGTQQQFVEGVRMEEIVEGCTGALHILARDVHNRIVIRGLNTIPLFVQLLYSPIENIQRVAAGVLCELAQDKEAAEAIEAEGATAPLTELLHSRNEGVATYAAAVLFRMSEDKPQDYKKRLSVELTSSLFRTEPMAWNETADLGLDIGAQGEPLGYRQDDPSYRSFHSGGYGQDALGMDPMMEHEMGGHHPGADYPVDGLPDLGHAQDLMDGLPPGDSNQLAWFDTDL
modifications: left off: large carriers; small tags and cut ends
notes: mEGFP-tagged β-catenin at the endogenous locus in HCT116 cells
- approximate apparent diffusion coefficient [5]: ~0.004±0.003 μm^2/s

Molecule: PPPPPPPPPP (also: TMR fluorescent tag, site not given here, also called proline decapeptide) [TMR-Poly-P Peptide]
- binding result [6]: no binding (tested: 10 uM)
